# Experimental data published in US20260242478A1 (published 2026).
# Where no end group is shown, it is not given here.
# How the values were obtained:
# 006 PSMA Fab [1] = biological target: T1, 006 PSMA Fab (biotinylated (site not stated)); assay: clonal phage ELISA on captured PSMA Fab, wells pre-incubated with PSMA antigen as competitor
# T1 construct: also called Anti-PSMA Fab
# 006 PSMA Fab [2] = biological target: T1, 006 PSMA Fab; assay: clonal phage ELISA on biotinylated PSMA Fab captured on neutravidin, anti-M13-HRP detection;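 note: crude clonal phage supernatants added to wells preincubated with PSMA antigen in blocking buffer or with blocking buffer alone, brief binding period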
# Method: (§1) Clonal phage were harvested as crude supernatants and screened via standard ELISAs. […] Prior to the addition of clonal phage. wells were incubated with blocking buffer and PSMA antigen or blocking buffer alone. Without washing or aspirating, clonal phage supernatants were then added to the wells and incubated for a short time. Wells were then washed followed by detection of bound phage using a horse radish conjugated anti-M13 antibody.
# PSMA Fab (006 PSMA Fab) [3] = biological target: T2, PSMA Fab (006 PSMA Fab); assay: phage ELISA; clonal phage supernatant on biotinylated PSMA Fab captured on neutravidin plate, anti-M13 HRP detection
# T2 construct: also called Anti-PSMA Fab; anti-PSMA Fab
# Method: as §1
# PSMA Fab (006 PSMA Fab) [4] = biological target: T2, PSMA Fab (006 PSMA Fab); assay: phage ELISA; clonal phage on plate-captured PSMA Fab pre-incubated with PSMA antigen as competitor, anti-M13 HRP detection
# Method: as §1
Binder,"Phage binding ELISA signal, Anti-PSMA Fab in presence of PSMA (006 PSMA Fab [1])","Phage binding ELISA signal, Anti-PSMA Fab (006 PSMA Fab [2])","Phage binding ELISA signal, Anti-PSMA Fab (PSMA Fab (006 PSMA Fab) [3])","Phage binding ELISA signal, Anti-PSMA Fab with PSMA antigen (PSMA Fab (006 PSMA Fab) [4])"
"IHPVCKPDWMCAGF (cysteine pairing not given here; also: peptide fused to pIII, Peptide-180 library clone, tested as clonal phage (peptide fused to pIII)) [Phage-2935]",0.0823,2.29,–,–
"LTPMCKPSWMCDGF (Peptide-180 library clone, tested as clonal phage (peptide fused to pIII)) [Phage-2944]",0.105,2.28,–,–
"DVRMCKPSWMCIGL (Peptide-180 library clone, tested as clonal phage (peptide fused to pIII)) [Phage-2941]",0.0754,2.28,–,–
"HVPKCVPQWMCIGF (Peptide-180 library clone, tested as clonal phage (peptide fused to pIII)) [Phage-2938]",0.202,2.29,–,–
"IDPMCKPLWMCAGF (cysteine pairing not given here; also: peptide displayed as fusion to phage pIII, Peptide-180 library clone, tested as clonal phage (peptide fused to pIII)) [Phage-2936]",0.145,2.29,–,–
"FDKICVPTWMCTGF (Peptide-180 library clone, tested as clonal phage (peptide fused to pIII)) [Phage-2940]",0.107,2.28,–,–
"VFPMCKPAWMCLGF (Peptide-180 library clone, tested as clonal phage (peptide fused to pIII)) [Phage-2937]",0.319,2.29,–,–
"EGIYCRPAWMCEGF (Peptide-180 library clone, tested as clonal phage (peptide fused to pIII)) [Phage-2943]",0.0765,2.28,–,–
"EMRMCTPPWMCWGF (Peptide-180 library clone, tested as clonal phage (peptide fused to pIII)) [Phage-2946]",0.112,2.28,–,–
"TVIKCIPAWMCDGF (Peptide-180 library clone, tested as clonal phage (peptide fused to pIII)) [Phage-2945]",0.09,2.28,–,–
MHMLCRPAWMCSGF (tested as crude phage supernatant) [Phage-2932],–,–,2.29,0.21
"ISALCVPDWMCYGF (Peptide-180 library clone, tested as clonal phage (peptide fused to pIII)) [Phage-2939]",0.696,2.28,–,–
"GDHLCRPSWMCVGF (Peptide-180 library clone, tested as clonal phage (peptide fused to pIII)) [Phage-2947]",0.0649,2.28,–,–
VERACVPVWMCEGF (tested as crude phage supernatant) [Phage-2933],–,–,2.29,0.11
"ELILCQPRWMCEGF (Peptide-180 library clone, tested as clonal phage (peptide fused to pIII)) [Phage-2942]",0.0637,2.28,–,–
"EFNWCRPLWMCVGF (cysteine pairing not given here; also: peptide displayed as fusion to phage pIII, Peptide-180 library clone, tested as clonal phage (peptide fused to pIII of the bacteriophage)) [Phage-2934]",0.157,2.29,–,–
